Biological target: T1, Angiotensin-converting enzyme 2 (ACE2) (UniProt Q9BYF1 18-805, glycosylation moieties seen in the map)
T1 construct: source: co-transfected in HEK-293T cells for the current recordings
Experiment: cryo-EM structure; ACE2-SIT1 complex bound to Pro, 3.3 Å overall (transmembrane domain 3.7 Å local)
Conditions: both partners purified

T1 sequence (Q9BYF1 18-805): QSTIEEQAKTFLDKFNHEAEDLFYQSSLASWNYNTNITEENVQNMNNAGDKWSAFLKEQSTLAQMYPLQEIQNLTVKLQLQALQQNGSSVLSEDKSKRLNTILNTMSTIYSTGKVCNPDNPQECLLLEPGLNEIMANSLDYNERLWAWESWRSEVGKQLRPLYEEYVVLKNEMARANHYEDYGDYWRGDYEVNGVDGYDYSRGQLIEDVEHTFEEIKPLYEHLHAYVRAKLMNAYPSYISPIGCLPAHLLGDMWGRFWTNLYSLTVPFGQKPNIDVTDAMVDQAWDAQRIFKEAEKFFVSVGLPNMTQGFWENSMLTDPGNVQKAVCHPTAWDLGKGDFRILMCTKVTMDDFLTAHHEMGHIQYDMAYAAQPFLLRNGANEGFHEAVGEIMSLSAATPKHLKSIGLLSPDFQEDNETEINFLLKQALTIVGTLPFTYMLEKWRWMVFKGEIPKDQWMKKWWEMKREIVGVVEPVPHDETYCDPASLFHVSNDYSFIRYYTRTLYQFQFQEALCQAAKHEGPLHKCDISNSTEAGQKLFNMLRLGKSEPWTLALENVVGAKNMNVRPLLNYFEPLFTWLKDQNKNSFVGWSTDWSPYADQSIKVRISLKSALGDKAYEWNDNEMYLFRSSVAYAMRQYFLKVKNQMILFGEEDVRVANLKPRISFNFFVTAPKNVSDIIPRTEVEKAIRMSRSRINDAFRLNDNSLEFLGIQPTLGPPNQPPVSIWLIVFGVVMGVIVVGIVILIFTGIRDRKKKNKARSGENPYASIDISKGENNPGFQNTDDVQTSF

B1: SIT1 (SLC6A20) (natural protein)
chain: MEKARPLWANSLQFVFACISYAVGLGNVWRFPYLCQMYGGGSFLVPYIIMLIVEGMPLLYLELAVGQRMRQGSIGAWRTISPYLSGVGVASVVVSFFLSMYYNVINAWAFWYLFHSFQDPLPWSVCPLNGNHTGYDEECEKASSTQYFWYRKTLNISPSLQENGGVQWEPALCLLLAWLVVYLCILRGTESTGKVVYFTASLPYCVLIIYLIRGLTLHGATNGLMYMFTPKIEQLANPKAWINAATQIFFSLGLGFGSLIAFASYNEPSNNCQKHAIIVSLINSFTSIFASIVTFSIYGFKATFNYENCLKKVSLLLTNTFDLEDGFLTASNLEQVKGYLASAYPSKYSEMFPQIKNCSLESELDTAVQGTGLAFIVYTEAIKNMEVSQLWSVLYFFMLLMLGIGSMLGNTAAILTPLTDSKIISSHLPKEAISGLVCLVNCAIGMVFTMEAGNYWFDIFNDYAATLSLLLIVLVETIAVCYVYGLRRFESDLKAMTGRAVSWYWKVMWAGVSPLLIVSLFVFYLSDYILTGTLKYQAWDASQGQLVTKDYPAYALAVIGLLVASSTMCIPLAALGTFVQRRLKRGDADPVA
notes: also called WT; source: co-transfected in HEK-293T cells for the current recordings
binding result: binds

From PMC10491607 (Cell Discovery, 2023)
